In paper PMC1762009, “Structure of the yeast histone H3-ASF1 interaction: implications for chaperone mechanism, species-specific interactions, and epigenetics” (BMC Structural Biology, 2006):

Molecular target: T1, conserved N-terminus of yeast Asf1 (residues 2–155) (S. cerevisiae, UniProt P32447 2-155)
T1 construct: Asf1 (anti-silencing function 1), budding yeast, residues 2-155; Written as a molecule of its own for the pair; also called Asf1N; ScAsf1; source: E. coli, purified (Ni-chromatography, TEV cleavage, second Ni step, gel filtration); not shown: His6, N-terminal, cleaved; MBP, N-terminal, cleaved
Assay: crystal structure; Asf1N fused to H3α3 by the linker AAGAATAA on one chain; hanging-drop vapor diffusion, 18°C, 85 mM Tris-HCl (pH 8.5), 120 mM Li2SO4, 25% PEG 4000, 15% glycerol; 2.2 Å
Conditions: both partners purified

T1 sequence (P32447 2-155): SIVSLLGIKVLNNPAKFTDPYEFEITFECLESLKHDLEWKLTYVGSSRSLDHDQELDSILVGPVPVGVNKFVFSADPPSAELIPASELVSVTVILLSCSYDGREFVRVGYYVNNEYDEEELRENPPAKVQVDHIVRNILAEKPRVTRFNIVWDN

B1: C-terminal α3 helix of yeast histone H3 (residues 121–134) (domain or fragment, S. cerevisiae, UniProt P61830 122-135, looked up)
chain: KKDIKLARRLRGER
notes: histone H3, budding yeast, C-terminal alpha helix, amino acids 121-134; The final model holds H3 residues 121-131 only; also called H3α3; ScH3 121-134; source: E. coli, purified (Ni-chromatography, TEV cleavage, second Ni step, gel filtration), as a fusion behind Asf1N
binding result: binds
